These results are taken from the nanobody polyreactivity screen of Harvey et al. (2022).

The data set in a line: yeast display, Sf9 membrane polyspecificity reagent, FACS + sequencing; frameworks hold sequencing errors. The method, boiled down: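 Galactose-induced (36–48 hours) yeast carrying a synthetic nanobody display library were exposed to 10% biotinylated, detergent-solubilized Sf9 membrane reagent at 4 °C for 1 hour. FACS followed streptavidin microbead enrichment, using low and high (top ~1%) gates for expression (anti-HA) and reagent binding (streptavidin). Colony PCR, MiSeq 2 × 250 sequencing and CDR-length filtering followed. Labels for polyreactivity reflect the gate of origin.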
In the case of “QVQLVESGGGLVQAGGSLRLSCAASGSTFTVNGMGWYRQAPGKERELVASITWSGGSTYYADSVKGRFTISRDNAKNTVYLQMNSLKPEATAVYYCAADEKLYITGYDYWGQGTQVTVSS”, the “polyreactivity (PSR sort gate)” value is “low polyreactivity”.

As to “QVQLVESGGGLVQAGGSLRLSCAASGSTFTVNTMGWYRQAPGKERELVAAISFGGGPTYYADSVKGRFTISRDNAKNTVYLQMNSLKPEDTAVYSCAARGSLWNARKYYYWGQGTQVTVSS”, the “polyreactivity (PSR sort gate)” value is “high polyreactivity”.

For the sequence “QVQLVESGGGLVQAGGSLRLSCAASGSTFTVNTMGWYRQAPGKERELVDAISFGGGPTYYADSVKGRFTISRDNAKNTVYLQMNSLKPDDTAVYYCAARGYLWHARKYYYWGQGTQVTVSS”, the “polyreactivity (PSR sort gate)” value is listed as “high polyreactivity”.

Take “QVQLVESGGGLVQAGGSLRLSCAASGSTFTVYAMGWYRLAPGKERELVAAISGSGGRTYYADSVKGRFTISRDNAKNTVYLQMNSLKPEDTAVYYCIARWGYRRGYWGQGTQVTVSS”: the “polyreactivity (PSR sort gate)” value was “high polyreactivity”.

On to “QVQLVESGGGLVQAGGSLRLSCAASGSTFTVYAMGWYRQAPGKERELVAAISWGGGSTNYADSVKGRFTISRDNAKNTVYLQMNSLKPEDTAVYYCNADIDVIIGSWGDYWGQGTQVTVSS”, for which the “polyreactivity (PSR sort gate)” value is “low polyreactivity”.

On to “QVQLVESGGGLVQAGGSLRLSCAASGSTFTWNTMGWYRQAPGKEREMVAAISMRGANTYADSVKGRFTISLDNAKNTVYLEMNSLKPEDTAVYYCARDRLAIMDYNEYITRYEYWGQGTQVTVSS”, for which the “polyreactivity (PSR sort gate)” value is “low polyreactivity”.

As for “QVQLVESGGGLVQAGGSLRLSCAASGSTFTWNVMGWYRQAPAKERELVASITSGDSTYADSVKGRFTISRDNAKNTVYLQMNSLKPEDTAVYYCNVGYDQEKYGYWGQGTQVTVSS”, the “polyreactivity (PSR sort gate)” value is given as “low polyreactivity”.

As for “QVQLVESGGGLVQAGGSLRLSCAASGSTFTYYAMGWYRQAPGKERELVAAITGSDGRTYYADSVKGRFTISRDNAKNTVYLQMNSLKPEDTAVYYCAAYFTRYDFRWHTYYYWGQGTQVTVSS”, the “polyreactivity (PSR sort gate)” value was “low polyreactivity”.

As to “QVQLVESGGGLVQAGGSLRLSCAASGSTFTYYAMGWYRQAPGKERELVAAITSNGGSTFYADSVKGRFTISRDNAKNTVYLQMNSLKPEDTAVYYCAAYRTHGPPRAIRFDYWGQGTQVTVSS”, the “polyreactivity (PSR sort gate)” value was “high polyreactivity”.

Regarding “QVQLVESGGGLVQAGGSLRLSCAASGSTFTYYAMGWYRQAPGTERELVAAITGSDGRTYYADSVKGRFTISRDNAKNTVYLQMNSLKPEDTAVYYCATDVPIREIDEFGYWGQGTQVTVSS”, the “polyreactivity (PSR sort gate)” value is “low polyreactivity”.

Turning to “QVQLVESGGGLVQAGGSLRLSCAASGSTFTYYAMGWYRQPPGKERELVAAIDTSGTSTYYADSVKGRFTISRDNAKNTVYLQINSLKPEDTAVYYCNAYPTTYYQQYDYWGQGTQVTVSS”, the “polyreactivity (PSR sort gate)” value was “low polyreactivity”.

In the case of “QVQLVESGGGLVQAGGSLRLSCAASGSTFTYYAMGWYSQAPGKERELVARIRASGGSTYYADSVKGRFTISRDTAKNTDYLQMNSLKPEDTAVYYCAAQLYFLYRTYDYWGQGTQVTVSS”, the “polyreactivity (PSR sort gate)” value is “high polyreactivity”.

With “QVQLVESGGGLVQAGGSLRLSCAASGSTFTYYSMGWDRQAPGKERELVAAISSNGGSTSYADSVKGRFTISRDNAKNTVYLQMNSLKPEDTAVYYCAAQVPLFGRYYWGQGTQVTVSS”, the “polyreactivity (PSR sort gate)” value was “high polyreactivity”.

Take “QVQLVESGGGLVQAGGSLRLSCAASGSTFVAYVMGWYRQAPGKERELVASITSGGITNYADSVKGRFTISRDNAKNTVYLQMNSLKPEDTAVKGDYWGQGTQVTVSS”: the “polyreactivity (PSR sort gate)” value was “low polyreactivity”.

Consider “QVQLVESGGGLVQAGGSLRLSCAASGSTFVDNAMGWYRQAPGKEREFVAAIDWSGGSTFYADSVKGRFTISRDNAKNTVYLQMNSLKPEDTAVYYCAAYPQAYIADYDYWGQGTQVTVSS”, for which the “polyreactivity (PSR sort gate)” value is on record as “low polyreactivity”.

As to “QVQLVESGGGLVQAGGSLRLSCAASGSTFVDYAMGWYRQAPGKERELVAGITSGGSTNYADSVKGRFTISRDNAKNTVYLQMNSLKPEDTAVYYCNADPGQDTPGGISDEWYSVWLEYDYWGQGTQVTVSS”, the “polyreactivity (PSR sort gate)” value was “low polyreactivity”.
